In article PMC5487423:

Molecular target: P991_AMBCA, purified, C-terminal StrepII-8xHis tag (Amblyomma cajennense)
Test: BLI; Kd and koff determination: His-tagged evasin immobilised on Ni-NTA biosensor (OctetRed), chemokine dilutions from 300 nM to 0.4 nM, 30 °C, same buffer as the screen; reference protein subtracted; 1:1 model with global fit, or steady state; each experiment once

With “CCL13 (from UniProt Q99616 17-98) (ligand)” as the substance, how does the dissociation half-life read?
The dissociation half-life was 2.72 h.
